Numbering of substitutions follows the chain as printed.

One data set concerns T1, V5-tagged IFI204 R12A.
T1 sequence: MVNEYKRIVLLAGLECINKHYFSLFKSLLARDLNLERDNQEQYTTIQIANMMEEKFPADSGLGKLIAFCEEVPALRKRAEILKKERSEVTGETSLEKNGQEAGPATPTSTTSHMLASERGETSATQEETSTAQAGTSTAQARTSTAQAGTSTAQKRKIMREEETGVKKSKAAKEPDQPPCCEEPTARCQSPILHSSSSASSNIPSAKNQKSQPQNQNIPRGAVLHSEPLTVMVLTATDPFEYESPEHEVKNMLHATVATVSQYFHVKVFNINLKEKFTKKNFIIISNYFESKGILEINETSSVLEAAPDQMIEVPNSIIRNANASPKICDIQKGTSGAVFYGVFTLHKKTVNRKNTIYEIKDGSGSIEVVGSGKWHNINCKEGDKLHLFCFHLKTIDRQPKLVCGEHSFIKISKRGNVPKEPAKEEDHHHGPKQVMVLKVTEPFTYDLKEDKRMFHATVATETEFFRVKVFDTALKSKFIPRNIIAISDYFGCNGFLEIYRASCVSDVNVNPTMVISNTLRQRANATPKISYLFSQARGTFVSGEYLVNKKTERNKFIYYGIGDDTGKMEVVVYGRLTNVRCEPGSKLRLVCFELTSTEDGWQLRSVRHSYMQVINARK

Data set [1] deals with T2, V5-tagged IFI204 RR12/538AA.
T2 sequence: T1 sequence with R538A

The test system of a further data set is T3, V5-tagged IFI204 R538A.
T3 sequence: T1 sequence with A12R, R538A

A further data set has as its system T4, V5-tagged IFI204 WT.
T4 sequence: T1 sequence with A12R

As for recombinant active PRMT5 plus WDR77, the “in vitro methylation (3H-SAM, autoradiography)” value with V5-tagged IFI204 R12A is on record as “Immunopurified WT IFI204, but not a mutant form lacking either Arg12, Arg538 or both, was methylated in vitro by recombinant PRMT5”; in data set [1] it was “Immunopurified WT IFI204, but not a mutant form lacking either Arg12, Arg538 or both, was methylated in vitro by recombinant PRMT5”; with V5-tagged IFI204 R538A, “Immunopurified WT IFI204, but not a mutant form lacking either Arg12, Arg538 or both, was methylated in vitro by recombinant PRMT5”; in the data set with V5-tagged IFI204 WT it was “IFI204 WT protein was methylated by PRMT5 /WDR77”.

The record behind these values is patent publication US20230301998.
